Bridges are numbered along the chain shown (N, C = ends). [ ]: non-standard residue; d: D form. Phe(3,4-(OMe)2) = COc1ccc(C[C@H](N)C(=O)O)cc1OC; 2Nal = N[C@@H](Cc1ccc2ccccc2c1)C(=O)O; AEF = NCCOc1ccc(C[C@H](N)C(=O)O)cc1; Cit = NC(=O)NCCC[C@H](N)C(=O)O; αMeL = CC(C)C[C@](C)(N)C(=O)O; αMeK = C[C@](N)(CCCCN)C(=O)O; αMeV = CC(C)[C@](C)(N)C(=O)O; Ac6c = NC1(C(=O)O)CCCCC1; Thp = NC1(C(=O)O)CCOCC1; Abu = CC[C@H](N)C(=O)O; Ac4c = NC1(C(=O)O)CCC1; Ac3c = NC1(C(=O)O)CC1; AEA = NCCOCC(=O)O; βAla = NCCC(=O)O
T1: IL-23R on DB cells (human, UniProt Q5VWK5 24-629)
T1 sequence (looked up): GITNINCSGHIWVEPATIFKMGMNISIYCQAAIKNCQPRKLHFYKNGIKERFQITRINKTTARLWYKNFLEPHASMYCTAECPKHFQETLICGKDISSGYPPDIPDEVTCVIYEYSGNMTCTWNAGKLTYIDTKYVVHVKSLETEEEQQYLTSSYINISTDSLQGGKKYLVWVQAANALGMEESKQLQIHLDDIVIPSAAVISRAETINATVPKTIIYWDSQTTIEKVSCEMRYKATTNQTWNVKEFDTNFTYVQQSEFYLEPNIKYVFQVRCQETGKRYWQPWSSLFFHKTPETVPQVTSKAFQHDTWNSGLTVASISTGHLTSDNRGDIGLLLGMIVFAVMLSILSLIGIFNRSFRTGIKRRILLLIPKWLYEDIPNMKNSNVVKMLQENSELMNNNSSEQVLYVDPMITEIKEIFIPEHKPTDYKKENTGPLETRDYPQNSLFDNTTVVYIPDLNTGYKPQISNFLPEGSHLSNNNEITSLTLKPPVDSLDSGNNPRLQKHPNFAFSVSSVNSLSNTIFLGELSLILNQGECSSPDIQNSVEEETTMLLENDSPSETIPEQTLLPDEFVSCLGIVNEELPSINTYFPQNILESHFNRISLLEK

T2: IL-23R on human cells (IL-23R-expressing DB cells; human NK cells) (human, UniProt Q5VWK5 24-629)
T2 sequence (looked up): T1 sequence (looked up)

T3: IL23R_huFC (human, UniProt Q5VWK5 24-353)
T3 sequence (looked up): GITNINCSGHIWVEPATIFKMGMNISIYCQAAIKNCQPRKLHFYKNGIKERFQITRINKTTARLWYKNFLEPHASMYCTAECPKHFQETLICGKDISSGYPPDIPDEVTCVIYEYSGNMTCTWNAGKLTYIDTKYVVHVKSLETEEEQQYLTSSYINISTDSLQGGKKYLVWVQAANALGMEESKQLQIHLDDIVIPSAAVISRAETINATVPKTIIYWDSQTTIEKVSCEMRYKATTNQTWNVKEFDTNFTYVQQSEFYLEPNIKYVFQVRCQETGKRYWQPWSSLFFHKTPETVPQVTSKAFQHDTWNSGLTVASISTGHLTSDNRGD

B1: [Ac-[Pen]-NTWQ-[Pen]-[Phe(4-CONH2)]-[2-Nal]-[α-MeLeu]-KNN-NH2]2DIG (peptide)
peptide: XNTWQXFXLKNN
modifications: Ac; Pen-Pen disulfide; Phe(4-CONH2); 2-Nal; α-MeLeu; NH2; DIG linker joins the two subunits
B2: [Ac-[Pen]-NTWQ-[Pen]-[Phe(4-OMe)]-[2-Nal]-[Aib]-KNN-NH2]2DIG (peptide)
peptide: XNTWQXFXXKNN
modifications: Ac; Pen-Pen disulfide; Phe(4-OMe); 2-Nal; Aib; NH2; DIG linker joins the two subunits
B3: [Ac-[Pen]-NTWQ-[Pen]-[Phe(4-OMe)]-[2-Nal]-[4-amino-4-carboxy-tetrahydropyran]-KNN-NH2]2DIG (peptide)
peptide: XNTWQXFXXKNN
modifications: Ac; Pen-Pen disulfide; Phe(4-OMe); 2-Nal; 4-amino-4-carboxy-tetrahydropyran; NH2; DIG linker joins the two subunits
B4: [Ac-[Pen]-NTWQ-[Pen]-[Phe(4-OMe)]-[2-Nal]-[Achc]-KNN-NH2]2DIG (peptide)
peptide: XNTWQXFXXKNN
modifications: Ac; Pen-Pen disulfide; Phe(4-OMe); 2-Nal; Achc; NH2; DIG linker joins the two subunits
B5: [Ac-[Pen]-NTWQ-[Pen]-[Phe(4-OMe)]-[2-Nal]-[Acvc]-KNN-NH2]2DIG (peptide)
peptide: XNTWQXFXXKNN
modifications: Ac; Pen-Pen disulfide; Phe(4-OMe); 2-Nal; Acvc; NH2; DIG linker joins the two subunits
B6: [Ac-[Pen]-NTWQ-[Pen]-[Phe(4-OMe)]-[2-Nal]-[α-MeLeu]-KNN-NH2]2DIG (peptide)
peptide: XNTWQXFXLKNN
modifications: Ac; Pen-Pen disulfide; Phe(4-OMe); 2-Nal; α-MeLeu; NH2; DIG linker joins the two subunits
B7: Ac-Cyclo-[CRTWQ-[Abu]]-YWRKFG-[AEA]-[(D)Lys]-NH2 (peptide)
peptide: Ac-CRTWQ[Abu]YWRKFG[AEA][dK]-NH2
modifications: thioether 1-6
B8: Ac-Cyclo-[[Abu]-QTWQC]-[Phe[4-(2-aminoethoxy)]]-[2-Nal]-[α-MeLys]-ENN-NH2 (peptide)
peptide: Ac-[Abu]QTWQC[AEF][2Nal][αMeK]ENN-NH2
modifications: thioether 1-6
B9: Ac-Cyclo-[[Abu]-QTWQC]-[Phe[4-(2-aminoethoxy)]]-[2-Nal]-[α-MeLys]-ENQ-NH2 (peptide)
peptide: Ac-[Abu]QTWQC[AEF][2Nal][αMeK]ENQ-NH2
modifications: thioether 1-6
B10: Ac-Cyclo-[[Abu]-QTWQC]-[Phe[4-(2-aminoethoxy)]]-[2-Nal]-α-MeVal]-[Lys(Ac)]-NG-NH2 (peptide)
peptide: Ac-[Abu]QTWQC[AEF][2Nal][αMeV]K(Ac)NG-NH2
modifications: thioether 1-6
B11: Ac-Cyclo-[[Abu]-QTWQC]-[Phe[4-(2-aminoethoxy)]]-[Phe(3,4-OMe2]-[α-MeLys]-[Lys(Ac)]-NG-NH2 (peptide)
peptide: Ac-[Abu]QTWQC[AEF][Phe(3,4-(OMe)2)][αMeK]K(Ac)NG-NH2
modifications: thioether 1-6
B12: Ac-Cyclo-[[Abu]-QTWQC]-[Phe[4-(2-aminoethoxy)]]-[2-Nal]-[4-amino-4-carboxy-tetrahydropyran]-ENN-NH2 (peptide)
peptide: Ac-[Abu]QTWQC[AEF][2Nal][Thp]ENN-NH2
modifications: thioether 1-6
B13: Ac-Cyclo-[[Abu]-QTWQC]-[Phe[4-(2-aminoethoxy)]]-[2-Nal]-[α-MeLeu)-[Cit]-NN-NH2 (peptide)
peptide: Ac-[Abu]QTWQC[AEF][2Nal][αMeL][Cit]NN-NH2
modifications: thioether 1-6
B14: Ac-Cyclo-[[Abu]-QTWQC]-[Phe[4-(2-aminoethoxy)]]-[2-Nal]-[Acbc]-ENN-NH2 (peptide)
peptide: Ac-[Abu]QTWQC[AEF][2Nal][Ac4c]ENN-NH2
modifications: thioether 1-6
B15: Ac-Cyclo-[[Abu]-QTWQC]-[Phe[4-(2-aminoethoxy)]]-[2-Nal]-[Achc]-ENN-NH2 (peptide)
peptide: Ac-[Abu]QTWQC[AEF][2Nal][Ac6c]ENN-NH2
modifications: thioether 1-6
B16: Ac-Cyclo-[[Abu]-QTWQC]-[Phe[4-(2-aminoethoxy)]]-[2-Nal]-[α-MeLeu]-QN-[βAla]-NH2 (peptide)
peptide: Ac-[Abu]QTWQC[AEF][2Nal][αMeL]QN[βAla]-NH2
modifications: thioether 1-6
B17: Ac-[(D)Phe]-Cyclo-[[Abu]-QTWQC]-[Phe[4-(2-aminoethoxy)]]-[2-Nal]-[α-MeLys]-ENN-NH2 (peptide)
peptide: Ac-[dF][Abu]QTWQC[AEF][2Nal][αMeK]ENN-NH2
modifications: thioether 2-7
B18: Ac-Cyclo-[[Abu]-QTWQC]-[Phe[4-(2-aminoethoxy)]]-[2-Nal]-]Acpc]-ENN-NH2 (peptide)
peptide: Ac-[Abu]QTWQC[AEF][2Nal][Ac3c]ENN-NH2
modifications: thioether 1-6
B19: Ac-(D)Phe-Cyclo-[[Abu]-QTWQC]-[Phe[4-(2-aminoethoxy)]]-[2-Nal]-[4-amino-4-carboxy-tetrahydropyran]-ENN-NH2 (peptide)
peptide: FXQTWQCFXXENN
modifications: as bracketed in name; thioether cyclo

Target: T1, IL-23R on DB cells
Experiment: cell-based or functional assay

Binder | pStat3 HTRF IC50 [nM]
B1 | < 10
B2 | < 10
B3 | < 10
B4 | < 10
B5 | < 10
B6 | < 10

Target: Rat IL-23R_huFC (rat)
Experiment: rat ELISA vs IL-23

Binder | IC50 [nM]
B7 | 100 to 1000

Target: T2, IL-23R on human cells …
Experiment: cell-based or functional assay

Binder | pStat3 HTRF IC50 [nM]
B8 | < 10
B9 | < 10
B10 | < 10
B11 | < 10
B12 | < 10
B13 | < 10
B14 | < 10
B15 | < 10
B16 | < 10

Target: T2, IL-23R on human cells …
Experiment: cell-based or functional assay
Remark: another data set of the same source

Binder | NK cell assay IC50 (IFNγ) [nM]
B8 | < 25
B9 | < 25
B10 | < 25
B11 | < 25
B12 | < 25
B13 | < 25
B17 | < 25
B14 | < 25
B15 | < 25
B16 | < 25
B18 | < 25
B19 | < 25

Target: T3, IL23R_huFC
Experiment: human ELISA vs IL-23

Binder | IC50 [nM]
B8 | < 10
B9 | < 10
B10 | < 10
B12 | < 10
B13 | < 10

Target: T3, IL23R_huFC
Experiment: human ELISA vs IL-23
Remark: another data set of the same source

Binder | IC50 [nM]
B11 | 10 to 25

Target: Rat IL-23R_huFC (rat)
Experiment: rat ELISA vs IL-23
Remark: another data set of the same source

Binder | IC50 [nM]
B11 | 25 to 100

Target: Rat IL-23R_huFC (rat)
Experiment: rat ELISA vs IL-23
Remark: another data set of the same source

Binder | IC50 [nM]
B8 | < 10
B9 | < 10
B10 | < 10
B12 | < 10
B13 | < 10
B17 | < 10

Source: patent US20190300590A1 (PROTAGONIST THERAPEUTICS, published 2019)
